Where a chain is given by its changes, count along the chain named.
B1: CID 211999: dimer of SEQ ID NO: 2 (dimer of directly joint monomers) (protein)
chain: IAAKFDEAQSAADSEILHLPNLTEQQRHYFRRWLSDDPSVSTHILTQAQHLNDDQAPKIAAKFDEAQSAADSEILHLPNLTEQQRHYFRRWLSDDPSVSTHILTQAQHLNDDQAPKSAWSHPQFEK
modifications: Col2 binding protein (dimer of 211261) (CID211999)
B2: CID 212001: tetramer of SEQ ID NO: 2 (protein)
chain: IAAKFDEAQSAADSEILHLPNLTEQQRHYFRRWLSDDPSVSTHILTQAQHLNDDQAPKIAAKFDEAQSAADSEILHLPNLTEQQRHYFRRWLSDDPSVSTHILTQAQHLNDDQAPKIAAKFDEAQSAADSEILHLPNLTEQQRHYFRRWLSDDPSVSTHILTQAQHLNDDQAPKIAAKFDEAQSAADSEILHLPNLTEQQRHYFRRWLSDDPSVSTHILTQAQHLNDDQAPKSAWSHPQFEK
modifications: Col2 binding protein (tetramer of 211261) (CID212001)
B3: CID 210987: hetero-dimeric binding protein comprising SEQ ID NO: 10 and SEQ ID NO: 6 linked head-to-tail (protein)
chain: IAAKFDEAQQAAFYEILHLPNLTEQQRNYFIQWLRDDPSVSLEVLGTAQRLNDSQAPKIAAKFDEAQQLAFYQILHLENLTEEQRNAFIQSLRDDPSVSLEVLGEAIKLNLSQAPK
modifications: Col2 binding protein (dimer) 210987
B4: CID 210992: heterodimer with SEQ ID NO: 10 as N-terminal monomer (protein)
chain: B3 chain with L100T, I107E, L111Y
modifications: Col2 binding protein (dimer) 210992
B5: CID 211027: heterodimer with SEQ ID NO: 10 as N-terminal monomer (protein)
chain: B3 chain with L100A, I107R, L111K
modifications: Col2 binding protein (dimer) 211027

Tests used:
[1] = biological target: T1, hCol2 (human Type II collagen) (Homo sapiens, UniProt P02458); assay: Binding analysis by SPR (Biacore 3000) vs human type II collagen; conditions: for Affinity [SPR] vs hCol2: dimers or tetramers, Langmuir 1:1 model
T1 construct: purchased Chondrex
T1 sequence (P02458 182-1241): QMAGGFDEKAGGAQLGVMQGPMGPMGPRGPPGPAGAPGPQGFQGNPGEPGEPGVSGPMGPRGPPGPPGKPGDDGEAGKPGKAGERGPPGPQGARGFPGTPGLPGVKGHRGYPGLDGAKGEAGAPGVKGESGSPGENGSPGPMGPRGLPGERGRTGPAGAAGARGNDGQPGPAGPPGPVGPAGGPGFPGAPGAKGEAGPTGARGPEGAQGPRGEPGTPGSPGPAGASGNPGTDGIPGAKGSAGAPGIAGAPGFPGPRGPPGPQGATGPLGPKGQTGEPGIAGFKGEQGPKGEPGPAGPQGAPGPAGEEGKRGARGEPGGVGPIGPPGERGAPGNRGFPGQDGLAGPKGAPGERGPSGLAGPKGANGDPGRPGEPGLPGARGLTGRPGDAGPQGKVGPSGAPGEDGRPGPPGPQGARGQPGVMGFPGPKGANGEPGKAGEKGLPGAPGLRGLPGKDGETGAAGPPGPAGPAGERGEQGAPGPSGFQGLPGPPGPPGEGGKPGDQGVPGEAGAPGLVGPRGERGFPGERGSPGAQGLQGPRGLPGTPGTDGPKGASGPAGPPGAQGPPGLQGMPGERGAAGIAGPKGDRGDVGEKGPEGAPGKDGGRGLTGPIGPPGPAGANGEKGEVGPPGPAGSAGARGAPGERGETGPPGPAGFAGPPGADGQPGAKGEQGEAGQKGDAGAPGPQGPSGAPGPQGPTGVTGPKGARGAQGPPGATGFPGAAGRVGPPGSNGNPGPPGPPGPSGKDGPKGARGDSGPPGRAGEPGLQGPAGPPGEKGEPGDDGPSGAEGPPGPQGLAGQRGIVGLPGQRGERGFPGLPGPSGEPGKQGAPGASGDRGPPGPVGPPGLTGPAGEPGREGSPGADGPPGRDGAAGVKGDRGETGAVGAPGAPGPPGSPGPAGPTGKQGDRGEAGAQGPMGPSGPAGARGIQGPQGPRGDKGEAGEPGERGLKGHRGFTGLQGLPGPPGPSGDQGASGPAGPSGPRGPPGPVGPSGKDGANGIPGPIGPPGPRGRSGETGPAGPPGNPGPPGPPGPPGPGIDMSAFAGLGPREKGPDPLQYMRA
Experimental: (§1) Proteins with affinity tag were purified by affinity chromatography and size exclusion. After affinity chromatography purification using Strep-Tactin Superflow high capacity cartridges (IBA Lifesciences) a size exclusion chromatography (SEC) was performed using an Äkta system and a Superdex™ 200 HiLoad 16/600 column (Cytiva). Fused variants with Aflibercept were purified via MabSelect SuRe (Cytiva) affinity chromatography followed by a size exclusion chromatography (SEC) using an Äkta system and a Superdex™ 200 HiLoad 16/600 column (Cytiva). All chromatography processing steps were carried out on AKTA systems using matrices from Cytiva. Homogenous species of all purified ligands were obtained; no aggregation was detected. Following SOS-PAGE analysis positive fractions were pooled and their protein concentrations were measured. Further analysis included SOS-PAGE, SE-HPLC and RP-HPLC. Protein concentrations were determined by absorbance measurement at 280 nm using the molar absorbent coefficient. Reversed phase chromatography (RP-HPLC) was performed using a Dionex HPLC system and a PLRP-S (5 μm, 300 Å) column (Agilent). Analytic size exclusion chromatography (SE-HPLC) was performed using a Dionex HPLC system and a Superdex200 increase 5/150 GL (Cytiva). Binding of Collagen II was evaluated by SPR measurements using a Biacore 3000 system. Purified Collagen II was obtained from Chondrex.inc and VEGF-165 was obtained from Millipore. Targets were immobilized on a CM5-Sensor via NHS/EDC chemistry (immobilization level ˜1000 RU). Binding molecules were injected at different concentration and affinity was calculated by langmuir 1:1 binding model.
The purified proteins were immobilized on a CM-5 sensor chip (GE Healthcare) using NHS/EDC after PDEA activation resulting in 110-140 RU with a Biacore 3000 system (GE Healthcare). The chip was equilibrated with SPR running buffer (PBS 0.05% Tween pH 7.3). Upon binding, target analyte was accumulated on the surface increasing the refractive index. This change in the refractive index was measured in real time and plotted as response or resonance units versus time. The analytes were applied to the chip in serial dilutions with a flow rate of 30 μl/min. The association was performed for 120 seconds and the dissociation for 120 seconds. After each run, the chip surface was regenerated with 30 μl regeneration buffer (10 mM glycine pH 2.0) and equilibrated with running buffer.
Binding studies were carried out by the use of the BIAcore 3000 (GE Healthcare); data evaluation was operated via the BIAevaluation 3.0 software, provided by the manufacturer, using the Langmuir 1:1 model (RI=0). Evaluated dissociation constants (KD) were standardized against the immobilized protein and indicated. Shown is the change in refractive index measured in real time and plotted as response or resonance unit [RU] versus time [sec].

[2] = biological target: T2, recombinant human collagen type II (h Col II) (Homo sapiens, UniProt P02458); assay: KD-determination by ELISA vs human collagen type II; type: binding; conditions: for binding affinity (KD) to type II collagen by ELISA, in words: tetramers: of different species
T2 construct: purchased Chondrex CHX-20051
T2 sequence (P02458 182-1241): as above
Experimental: (§2) High binding plates (Greiner, 781061) were immobilized with 2.5 μg/ml recombinant human collagen type II (h Col II, Chondrex, CHX-20051), rabbit collagen type II (rbCol II, prepared from rabbit eyes), porcine collagen type II (p Col II, prepared from porcine eyes), human collagen type I, (h Col I, Sigma, C5483-1MG), human collagen type V (h Col V, Abcam, ab7537), human collagen type III (h Col Ill, Abcam, ab7535) and 67B89 (domain of fibronectin, produced in E. coli) respectively over night at 4° C. ELISA-plates were washed 3 times with PBST (PBS+ 0.1% Tween) and blocked with 3% BSA/0.5% Tween/PBS 2 h at RT. After washing with PBST, dilution series of 1.1 μM to 7×10^−4 nM of dimers (CID 211999, CID 212000), dilution series of 100 nM to 7×10^−6 nM of tetramers (CID 212001 and CID 212704) and dilution series of 10 μM to 2 nM of dimer (CID 212705) were incubated on ELISA-plates 1 h at rt. Plates were washed with PBST and incubated with biotinylated anti-StrepTag-ab (Antikörper-online, ABIN1573895) with a dilution of 1:10.000 for 1 h at rt. The binding was visualized with a-rabbit-IgG-HRP (Sigma, A9169) with a dilution of 1:10.000 and as substrate TMB Plus von KEM EN TEC Diagnostic, Kat-Nr. 4395.

[3] = biological target: T3, human collagen type I (h Col I) (Homo sapiens, UniProt P02452+P08123); assay: ELISA specificity vs human collagen type I; type: binding
T3 construct: purchased Sigma C5483-1MG
T3 sequence (P02452 162-1218 limits assumed): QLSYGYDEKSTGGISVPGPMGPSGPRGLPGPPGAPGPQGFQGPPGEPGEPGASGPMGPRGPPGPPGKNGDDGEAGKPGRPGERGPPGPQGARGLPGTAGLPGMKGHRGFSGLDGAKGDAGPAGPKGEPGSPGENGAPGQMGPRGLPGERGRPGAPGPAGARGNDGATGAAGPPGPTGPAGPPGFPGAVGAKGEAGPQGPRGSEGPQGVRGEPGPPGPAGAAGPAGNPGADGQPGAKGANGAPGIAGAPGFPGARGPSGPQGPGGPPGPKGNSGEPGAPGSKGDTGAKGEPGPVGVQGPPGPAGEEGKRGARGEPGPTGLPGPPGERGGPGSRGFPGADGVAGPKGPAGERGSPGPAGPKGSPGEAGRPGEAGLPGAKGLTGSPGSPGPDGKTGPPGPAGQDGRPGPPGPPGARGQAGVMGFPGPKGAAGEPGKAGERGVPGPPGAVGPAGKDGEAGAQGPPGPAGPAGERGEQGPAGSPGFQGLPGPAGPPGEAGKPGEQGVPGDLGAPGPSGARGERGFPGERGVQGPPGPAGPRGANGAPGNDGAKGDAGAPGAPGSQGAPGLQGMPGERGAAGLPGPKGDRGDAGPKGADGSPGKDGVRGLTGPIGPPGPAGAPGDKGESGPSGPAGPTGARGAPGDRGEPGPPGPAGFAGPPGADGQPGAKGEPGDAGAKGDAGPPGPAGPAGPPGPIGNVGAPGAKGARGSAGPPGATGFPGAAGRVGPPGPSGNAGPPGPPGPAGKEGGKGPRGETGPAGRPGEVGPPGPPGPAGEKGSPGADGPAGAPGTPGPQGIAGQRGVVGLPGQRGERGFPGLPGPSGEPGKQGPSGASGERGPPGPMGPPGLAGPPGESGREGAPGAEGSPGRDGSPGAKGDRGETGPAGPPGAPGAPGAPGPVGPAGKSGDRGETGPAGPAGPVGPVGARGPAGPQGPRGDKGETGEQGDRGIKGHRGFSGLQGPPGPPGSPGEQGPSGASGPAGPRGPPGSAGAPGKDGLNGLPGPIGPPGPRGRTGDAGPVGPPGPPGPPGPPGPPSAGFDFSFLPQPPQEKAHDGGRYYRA
T3 sequence (P08123 80-1119 limits assumed): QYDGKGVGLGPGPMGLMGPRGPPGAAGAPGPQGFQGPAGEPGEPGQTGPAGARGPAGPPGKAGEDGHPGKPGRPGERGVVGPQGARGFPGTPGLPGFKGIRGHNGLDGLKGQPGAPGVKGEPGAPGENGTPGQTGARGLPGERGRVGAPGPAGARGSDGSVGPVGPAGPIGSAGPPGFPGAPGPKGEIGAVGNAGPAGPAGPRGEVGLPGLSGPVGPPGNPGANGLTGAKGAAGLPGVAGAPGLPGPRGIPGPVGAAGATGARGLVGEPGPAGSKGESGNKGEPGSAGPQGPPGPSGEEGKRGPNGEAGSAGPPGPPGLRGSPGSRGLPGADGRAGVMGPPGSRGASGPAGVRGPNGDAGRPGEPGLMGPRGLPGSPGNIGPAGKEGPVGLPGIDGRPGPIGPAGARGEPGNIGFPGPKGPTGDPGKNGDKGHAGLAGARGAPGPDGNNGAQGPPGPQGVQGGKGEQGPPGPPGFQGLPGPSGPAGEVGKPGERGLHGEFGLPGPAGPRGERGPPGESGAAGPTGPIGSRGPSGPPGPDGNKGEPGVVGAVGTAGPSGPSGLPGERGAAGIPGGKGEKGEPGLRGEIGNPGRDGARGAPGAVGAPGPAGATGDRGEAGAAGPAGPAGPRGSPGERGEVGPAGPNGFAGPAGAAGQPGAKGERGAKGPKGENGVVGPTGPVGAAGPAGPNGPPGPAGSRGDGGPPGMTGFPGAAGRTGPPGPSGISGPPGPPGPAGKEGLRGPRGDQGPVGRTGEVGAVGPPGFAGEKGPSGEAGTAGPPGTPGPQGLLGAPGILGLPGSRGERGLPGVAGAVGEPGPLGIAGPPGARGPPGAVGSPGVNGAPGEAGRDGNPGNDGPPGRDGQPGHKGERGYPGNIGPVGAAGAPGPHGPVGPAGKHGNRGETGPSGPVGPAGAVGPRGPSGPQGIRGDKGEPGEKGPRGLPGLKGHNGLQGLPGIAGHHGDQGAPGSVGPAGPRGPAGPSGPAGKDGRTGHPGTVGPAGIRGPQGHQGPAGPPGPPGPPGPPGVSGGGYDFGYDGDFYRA
Experimental: as §2

human collagen type III = biological target: T4, human collagen type III (Homo sapiens, UniProt P02461); assay: ELISA specificity vs human collagen type III; type: binding
T4 construct: purchased Abcam ab7535
T4 sequence (P02461 154-1221 limits assumed): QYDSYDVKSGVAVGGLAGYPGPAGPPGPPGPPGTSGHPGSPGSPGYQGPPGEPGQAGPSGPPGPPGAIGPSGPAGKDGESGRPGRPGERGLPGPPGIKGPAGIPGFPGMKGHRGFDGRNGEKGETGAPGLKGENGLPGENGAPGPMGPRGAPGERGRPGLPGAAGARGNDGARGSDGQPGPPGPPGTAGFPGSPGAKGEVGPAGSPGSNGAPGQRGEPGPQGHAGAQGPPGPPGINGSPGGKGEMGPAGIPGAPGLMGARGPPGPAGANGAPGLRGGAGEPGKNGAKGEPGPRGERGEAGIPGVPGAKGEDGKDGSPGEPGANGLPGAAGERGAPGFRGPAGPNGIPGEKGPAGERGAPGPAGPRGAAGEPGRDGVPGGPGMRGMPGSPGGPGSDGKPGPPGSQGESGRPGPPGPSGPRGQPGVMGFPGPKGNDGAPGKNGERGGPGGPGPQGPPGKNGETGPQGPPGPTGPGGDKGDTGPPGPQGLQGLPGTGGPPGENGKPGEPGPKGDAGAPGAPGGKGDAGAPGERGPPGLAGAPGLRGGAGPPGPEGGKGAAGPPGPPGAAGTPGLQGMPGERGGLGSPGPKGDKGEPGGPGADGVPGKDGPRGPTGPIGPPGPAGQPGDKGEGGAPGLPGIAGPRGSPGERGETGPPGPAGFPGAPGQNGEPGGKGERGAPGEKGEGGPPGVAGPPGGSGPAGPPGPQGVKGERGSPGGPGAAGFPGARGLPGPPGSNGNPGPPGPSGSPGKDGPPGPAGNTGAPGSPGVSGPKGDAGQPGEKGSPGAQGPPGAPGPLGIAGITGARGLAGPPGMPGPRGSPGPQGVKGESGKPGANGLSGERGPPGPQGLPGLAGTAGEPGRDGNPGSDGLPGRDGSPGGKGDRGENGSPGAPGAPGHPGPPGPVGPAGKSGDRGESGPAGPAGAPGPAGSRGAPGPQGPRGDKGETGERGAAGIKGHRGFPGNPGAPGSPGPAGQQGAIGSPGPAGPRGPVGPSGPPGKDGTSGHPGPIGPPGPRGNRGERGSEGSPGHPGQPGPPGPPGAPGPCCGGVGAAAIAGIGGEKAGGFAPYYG
Experimental: as §2

[4] = biological target: T5, human collagen type V (h Col V) (Homo sapiens, UniProt P05997+P20908); assay: ELISA specificity vs human collagen type V; type: binding
T5 construct: purchased Abcam ab7537
Experimental: as §2

[5] = biological target: T6, 67B89 (domain of fibronectin) (Homo sapiens, UniProt P02751); assay: ELISA specificity vs 67B89; type: binding
T6 construct: unrelated fibronectin domain EDB (67B89) could be observed; made in house; host or cells: E. coli
T6 sequence (P02751 1089-1540 limits assumed): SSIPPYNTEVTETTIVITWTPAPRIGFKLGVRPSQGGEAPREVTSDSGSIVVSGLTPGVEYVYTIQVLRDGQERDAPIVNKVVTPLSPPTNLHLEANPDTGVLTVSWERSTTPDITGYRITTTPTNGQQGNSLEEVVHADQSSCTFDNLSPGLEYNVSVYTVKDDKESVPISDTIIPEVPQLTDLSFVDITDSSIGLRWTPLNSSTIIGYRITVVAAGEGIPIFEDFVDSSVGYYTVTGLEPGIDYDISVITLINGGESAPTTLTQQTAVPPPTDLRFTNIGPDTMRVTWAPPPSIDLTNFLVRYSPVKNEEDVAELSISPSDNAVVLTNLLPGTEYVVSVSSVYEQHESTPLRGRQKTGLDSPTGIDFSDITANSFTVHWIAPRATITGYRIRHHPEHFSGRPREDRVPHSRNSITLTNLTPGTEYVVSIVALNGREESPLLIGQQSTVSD
Experimental: as §2

[6] = Soluble expression in Escherichia coli BL21(DE3); type: physicochemical; conditions: expression in E. coli BL21(DE3)
Experimental: Variants with affinity tag were expressed in Escherichia coli BL21(DE3) using a low copy plasmid system under regulation of a T7 promoter. Proteins were produced in soluble form after induction by lactose included in the medium (autoinduction medium). BL21 (DE3) competent cells were transformed with the expression plasmid, spread onto selective agar plates (kanamycin) and incubated overnight at 37° C. Precultures were inoculated from single colony in 3 ml 2×YT medium supplemented with 50 μg/ml kanamycin and cultured for 6 hours at 37° C. at 200 rpm in a conventional orbital shaker in culture tubes. […] Cultures were transferred to an orbital shaker and incubated at 30° C. and 200 rpm. Recombinant protein expression was induced by metabolizing glucose and subsequently allowing lactose to enter the cells. Cells were grown overnight for approx. 17 hours to reach a final OD600 of about 2-4. Before the harvest, the OD600 was measured, samples adjusted to 0.6/OD600 were withdrawn, pelleted and frozen at −20° C. To collect biomass cells were centrifuged at 12000×g for 15 min at 22° C. Pellets were weighed (wet weight). Cells were stored at −20° C. before processing.
as §1

Molecule	Affinity [SPR] vs hCol2 [1]	binding affinity (KD) to type II collagen by ELISA, in words [2]	binding to type I collagen (ELISA) [3]	binding to type III collagen (ELISA) (human collagen type III)	binding to type V collagen (ELISA) [4]	binding to domain of fibronectin (67B89) (ELISA) [5]	Solubility Soluble expression [6]	Binding to type II collagen via SPR ([1]; FIG. 3, FIG. 4A)	binding affinity (KD) to human type II collagen (ELISA) [2]
B1	127 nM	1-2-digit nM	No unspecific binding	No unspecific binding	No unspecific binding	No unspecific binding	100%		
B2	<0.5 nM	3 digit-picomolar	No unspecific binding	No unspecific binding	No unspecific binding	No unspecific binding	100%	binding to type II collagen with high affinity	
B3	169 nM						80%		460 nM
B4							95%		
B5							85%		

From patent publication US20230416345A1, “NEW TYPE II COLLAGEN BINDING PROTEINS” (Navigo Proteins GmbH, priority 2020, published 2023)
